From US20230313203A1 come the findings set out here.

Several values for one entry are separate records, joined by “and”; a condition that tells them apart may be missing. Equal entries are not always repeated. Where two headings read alike, the source gives them in different places.

Experiment in all cases: filter
Data set [1] deals with SARS-CoV-2 spike receptor binding domain (Wuhan) (SARS-CoV-2) (UniProt P0DTC2).
Data set [2] concerns the target SARS-CoV-2 spike S1 (Wuhan), His-tagged (SARS-CoV-2) (UniProt P0DTC2).
In data set [3] the target is SARS-CoV-2 spike S1 (Wuhan), untagged (SARS-CoV-2) (UniProt P0DTC2).
Data set [4] concerns the target SARS-CoV-1 spike S1 (SARS-CoV-1) (UniProt P59594).
[5] abbreviates: first 20 nt DNA, rest FANA (T in random region is faU).
The mark [6] stands for this setting: first 20 nt DNA, rest FANA (SEQ ID NO 17).
The mark [7] stands for this setting: first 20 nt DNA, rest FANA (SEQ ID NO 1).
The mark [8] stands for this setting: first 20 nt DNA, rest FANA (SEQ ID NO 3).

Consider “AAAAGGTAGTGCTGAATTCGATTCTCGATTGATGGCATAAAAAGCATAGAATCGCAAGCAUUCGCUAUCCAGUUGGCCU [FANA-R8-7]”, for which the Kd – broadly, the constant that tells how readily two partners part at equilibrium – in data set [1] (setting [5]) was 62.8 nM; in data set [2] (setting [5]), 31.2 nM.
Regarding “AAAAGGTAGTGCTGAATTCGCGAGCCCGCAUGAAAAGGGGAGAUAAAAAAUAUCUGUCGAUUCGCUAUCCAGUUGGCCU [FANA-R8-9]”, the Kd in data set [1] is 23.5 nM and 19.6 nM; in data set [3], 29.6 nM; in data set [2] it was 14.7 nM; in data set [4], 259 nM.
In the case of “AAAAGGTAGTGCTGAATTCGCGAGCCCGCAUGAAAAGGGGAGAUAUGCAAUAUCUGUCGAUUCGCUAUCCAGUUGGCCU [FANA-R8-22]”, the figures for the Kd in data set [1] (setting [6]) and in data set [2] (setting [6]) were 21.3 nM and 13.3 nM, respectively.
Regarding “AAAAGGTAGTGCTGAATTCGGGAGCTCGAACAGATGGGATAAAAAGCATAGCTCACCAATUUCGCUAUCCAGUUGGCCU [FANA-R8-15]”, the Kd was 43.3 nM in data set [1] (setting [5]) and 27.7 nM in data set [2] (setting [5]).
The corresponding values for “AAAAGGTAGTGCTGAATTCGGTCGCGATTAACATTAAACCGCATAAAAAGGGTGGCCGGAUUCGCUAUCCAGUUGGCCU [FANA-R8-3]” are 68.1 nM and 46.4 nM.
As to “AAAAGGTAGTGCTGAATTCGNNNNNNNNNNNNNNNNNNNNNNNNNNNNNNNNNNNNNNNNUUCGCUAUCCAGUUGGCCU [FANA-ST]”, in data set [1] (first 20 nt DNA, rest 2'-fluoro-arabino (FANA)), the Kd was found to be 1700 nM.
Turning to “AAAAGGTAGTGCTGAATTCGUCGAACUAAACCGAAUUGAUGGCAUAAAAAGCAUGUUUAGUUCGCUAUCCAGUUGGCCU [FANA-R8-5]”, the values for the Kd in data set [1] (setting [7]) and in data set [2] (setting [7]) were 26.4 nM and 16.6 nM, respectively.
For the sequence “AAAAGGTAGTGCTGAATTCGUCGAACUAAUCCGAAUUGAUGGCAUAAAAAGCAUGUUUAGUUCGCUAUCCAGUUGGCCU [FANA-R8-17]”, the Kd in data set [1] (setting [8]) came out at 29.5 nM; in data set [2] (setting [8]), 19.1 nM.
